From publication PMC2736567

Target: endogenous GRB2 (human (endogenous in HEK-293T)) (UniProt P62993)
Sequence of UniProt P62993 (P62993 whole entry): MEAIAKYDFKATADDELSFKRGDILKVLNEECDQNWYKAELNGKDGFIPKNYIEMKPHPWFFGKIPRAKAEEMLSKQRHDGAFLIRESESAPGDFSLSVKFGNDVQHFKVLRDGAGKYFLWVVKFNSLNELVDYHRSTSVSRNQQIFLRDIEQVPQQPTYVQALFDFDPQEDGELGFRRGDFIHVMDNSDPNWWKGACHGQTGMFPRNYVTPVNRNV

GST-tagged hPIV3-C (full-length) (from UniProt P06165 1-199) (natural protein)
Elk1 trans-reporter after EGF in HEK-293T expressing hPIV3-C without a tag: 14 fold
